Results as given in US20260049143A1 (KYMAB, published 2026).

T1: human ICOS expressed on cells (human, UniProt Q9Y6W8 21-199)
T1 sequence: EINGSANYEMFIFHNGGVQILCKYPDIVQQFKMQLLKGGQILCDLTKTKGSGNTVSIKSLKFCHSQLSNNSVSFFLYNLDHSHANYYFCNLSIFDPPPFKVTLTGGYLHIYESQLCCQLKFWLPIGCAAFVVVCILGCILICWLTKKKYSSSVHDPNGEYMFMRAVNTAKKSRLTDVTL

T2: mouse ICOS-mFc (Chimerigen) (mouse, UniProt Q9WVS0 21-141, limits assumed)
T2 construct: Bought fusion; also called mICOS; recombinant mouse ICOS protein; not shown: mouse Fc
T2 sequence: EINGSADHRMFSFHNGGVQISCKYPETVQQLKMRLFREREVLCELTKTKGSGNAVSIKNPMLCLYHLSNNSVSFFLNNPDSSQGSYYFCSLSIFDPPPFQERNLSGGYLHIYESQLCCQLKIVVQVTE


Columns and labels:
[1] = target: T1, human ICOS expressed on cells; assay: cell-based or functional assay
[2] = target: T1, human ICOS expressed on cells; assay: cell-based or functional assay; remark: listed apart in the source
[3] = target: FcγRIIIa on Jurkat NFAT luciferase v-variant effector cells (Promega) (human, UniProt P08637 17-254); assay: cell-based or functional assay
[4] = target: T3, mouse PD-L1 expressed on CHO-S cells (mouse, UniProt Q9EP73 19-290); assay: flow cytometry on CHO cells expressing mouse PD-L1, anti-human IgG PE detection
T3 construct: also called mPD-L1; CHO mouse PD-L1
Description: (§1) CHO-S cells untransfected (referred to as WT) or transfected with mPD-L1 were diluted in FACS buffer (PBS+1% w/v BSA+0.1% w/v sodium azide) and were distributed to a 96-well V-bottom plate (Greiner) at a density of 5×10⁴ cells per well. […] Plates were centrifuged at 300×g for 3 minutes to supernatant aspirated. 50 μL antibody or mAb² solution were added to cells and incubated at 4° C. for 1 hour. Cells were washed with 150 μL of PBS and centrifuged at 300 g for 3 minutes. Supernatant was aspirated and 150 μL PBS added. This wash step was repeated. […] Cells were incubated for 1 hour at 4° C. in the dark. Cells were washed as previously described. To fix cells, 100 μL 4% v/v paraformaldehyde was added and cells incubated for 20 minutes at 4° C., cells were pelleted by centrifugation at 300×g and the plates resuspended in 100 μL FACS buffer.

[5] = target: T4, human PD-L1 expressed on cells (human, UniProt Q9NZQ7 19-290); assay: flow cytometry on CHO cells expressing human PD-L1, anti-human IgG PE detection
T4 construct: also called CHO human PD-L1; CHO-S cells transfected with human PD-L1
Description: as §1, with “the cDNA coding for human PD-L1” for “mPD-L1”

[6] = target: T2, mouse ICOS-mFc (Chimerigen); assay: DELFIA ELISA, coated mouse ICOS-mFc, mean
Description: Recombinant ICOS proteins, human ICOS-mFc or mouse ICOS-mFc (Chimerigen) were diluted in 1×PBS and added to Black Hi-bind plates (Griener) at 1 μg/ml, 50 μl/well. Recombinant PD-L1 proteins, human PD-L1-Flag-His or mouse-His were diluted in 1×PBS and added to Black Hi-bind plates (Griener) at 4 μg/ml, 50 μl/well. The plates were left overnight at 4° C. The next day plates were washed 3× with 300 μl/well of 1×PBS+0.1% Tween and blocked with 200 μl/well of 1×PBS+1% BSA blocking buffer for 1 hr at RT on a plate shaker. Plates were washed 3× with 300 μl/well of 1×PBS+0.1% Tween.
However, human-PD-L1 mAb² antibodies were diluted in 1×PBS+0.1% BSA buffer and diluted 1 in 2 from a starting working concentration of 0.066 μM over an 11 point titration. Titrated antibodies were added to the plates, 50 μl/well and left to incubate for 1 hr at R.T on a plate shaker. Plates were washed 3× with 300 μl/well of 1×PBS+0.1% Tween.
DELFIA® Eu-labelled Anti-human IgG(Perkin-Elmer) was diluted 1:500 in DELFIA Assay buffer (Perkin-Elmer) and added to the assay plate (50 μl/well), left to incubate for 1 hr at RT on a plate shaker. […] After incubation, assay was read on Envision plate reader (Perkin Elmer), Time-resolved fluorescence (TRF) was measured at 615 nm.

Sequence of FcγRIIIa on Jurkat NFAT luciferase v-variant effector cells (Promega) (P08637 other isoform, or with tags, fused parts or gaps mutant limits assumed): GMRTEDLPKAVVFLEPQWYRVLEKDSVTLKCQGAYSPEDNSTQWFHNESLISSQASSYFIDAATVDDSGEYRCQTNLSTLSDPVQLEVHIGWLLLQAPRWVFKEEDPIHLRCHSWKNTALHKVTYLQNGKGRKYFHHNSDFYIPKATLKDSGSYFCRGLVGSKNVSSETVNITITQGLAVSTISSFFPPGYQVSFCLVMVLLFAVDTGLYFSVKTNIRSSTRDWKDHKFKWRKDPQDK
T4 sequence (Q9NZQ7 19-290 limits assumed): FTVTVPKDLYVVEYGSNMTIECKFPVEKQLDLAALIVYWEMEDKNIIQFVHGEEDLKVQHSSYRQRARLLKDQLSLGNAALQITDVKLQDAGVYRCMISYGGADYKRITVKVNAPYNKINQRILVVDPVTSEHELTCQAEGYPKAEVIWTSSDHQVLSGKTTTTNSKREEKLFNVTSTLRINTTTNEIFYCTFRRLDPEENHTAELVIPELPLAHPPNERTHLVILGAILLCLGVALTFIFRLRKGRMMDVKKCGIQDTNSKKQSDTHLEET
T3 sequence (Q9EP73 19-290 limits assumed): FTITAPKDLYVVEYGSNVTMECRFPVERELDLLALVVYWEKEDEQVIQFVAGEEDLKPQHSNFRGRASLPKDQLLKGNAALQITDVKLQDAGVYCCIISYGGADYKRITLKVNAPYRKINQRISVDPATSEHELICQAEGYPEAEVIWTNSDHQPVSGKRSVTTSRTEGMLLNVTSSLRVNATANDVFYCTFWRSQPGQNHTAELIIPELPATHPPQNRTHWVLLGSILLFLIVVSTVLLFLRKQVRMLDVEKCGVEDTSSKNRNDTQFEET

Binder	EC50 of IFN-γ release, plate-bound antibody, human T cells with CD3/CD28 beads, Median [1]	EC50 of IFN-γ release, plate-bound antibody, human T cells with CD3/CD28 beads, donor 276 [1]	EC50 of IFN-γ release, plate-bound antibody, human T cells with CD3/CD28 beads, donor 278 [1]	EC50 of IFN-γ release, plate-bound antibody, human T cells with CD3/CD28 beads, donor 289 [1]	EC50 of IFN-γ release, plate-bound antibody, human T cells with CD3/CD28 beads, donor 295 [1]	EC50, ADCC (BATDA dye release), ICOS-transfected CCRF-CEM targets, NK cells, Donor 326 [2]	EC50, ADCC (BATDA dye release), ICOS-transfected CCRF-CEM targets, NK cells, Donor 334 [2]	EC50, ADCC (BATDA dye release), ICOS-transfected CCRF-CEM targets, NK cells, Donor 341 [2]	EC50, ADCC (BATDA dye release), ICOS-transfected CCRF-CEM targets, NK cells, Median [2]	EC50, NFAT luciferase reporter, CHO human ICOS target cells, N=1 [3]	EC50, NFAT luciferase reporter, CHO human ICOS target cells, N=2 [3]	EC50, NFAT luciferase reporter, CHO human ICOS target cells, N=3 [3]	EC50, NFAT luciferase reporter, CHO human ICOS target cells, mean [3]	EC50, NFAT luciferase reporter, CHO mouse ICOS target cells, N=1 [3]	EC50, NFAT luciferase reporter, CHO mouse ICOS target cells, N=2 [3]	EC50, NFAT luciferase reporter, CHO mouse ICOS target cells, N=3 [3]	EC50, NFAT luciferase reporter, CHO mouse ICOS target cells, mean [3]	binding result [4]	binding result [5]	EC50 [6]
STIM001_289 (bispecific antibody, V domains shown, not shown: a dimerising Fc or GST) VH: QVQVVQSGAEVKKPGASVKVSCKASGYTFSTFGITWVRQAPGQGLEWMGWISAYNGDTNYAQNLQGRVIMTTDTSTSTAYMELRSLRSDDTAVYYCARSSGHYYYYGMDVWGQGTTVTVSS VL: DIVMTQSPLSLPVTPGEPASISCRSSQSLLHSNEYNYLDWYLQKPGQSPQLLIFLGSNRASGVPDRFSGSGSGTDFTLKITRVEAEDVGIYYCMQSLQTPLTFGGGTKVEIK	9.45 nM	~10 nM	8.9 nM	7.1 nM	11.9 nM	0.0309 nM	0.0041 nM	~0.0103 nM	0.0175 nM	–	–	–	–	–	–	–	–	–	–	–
STIM003 (antibody, human IgG1, kappa, also called STIM003 IgG1) heavy: not shown light: EIVLTQSPGTLSLSPGERATLSCRASQSVSRSYLAWYQQKRGQAPRLLIYGASSRATGIPDRFSGDGSGTDFTLSISRLEPEDFAVYYCHQYDMSPFTFGPGTKVDIKRTVAAPSVFIFPPSDEQLKSGTASVVCLLNNFYPREAKVQWKVDNALQSGNSQESVTEQDSKDSTYSLSSTLTLSKADYEKHKVYACEVTHQGLSSPVTKSFNRGEC	5.55 nM	7.1 nM	3.8 nM	~4 nM	~11.6 nM	0.0212 nM	0.0037 nM	0.0067 nM	0.0105 nM	0.326 nM	0.477 nM	0.24 nM	0.347 nM	0.508 nM	0.754 nM	0.703 nM	0.655 nM	no binding (tested: about 2e-8 M (log M -7.7))	no binding (tested: about 2e-7 M (log M -6.7))	–
STIM001 (antibody, human IgG1, kappa, also called STIM001 IgG1; STIM0001) heavy: not shown light: DIVMTQSPLSLPVTPGEPASISCRSSQSLLHSNEYNYLDWYLQKPGQSPQLLIFLGSNRASGVPDRFSGSGSGTDFTLKITRVEAEDVGIYYCMQSLQTPLTFGGGTKVEIKRTVAAPSVFIFPPSDEQLKSGTASVVCLLNNFYPREAKVQWKVDNALQSGNSQESVTEQDSKDSTYSLSSTLTLSKADYEKHKVYACEVTHQGLSSPVTKSFNRGEC	10.7 nM	~9.9 nM	~10.2 nM	~11.2 nM	14.5 nM	0.0426 nM	0.0205 nM	0.0076 nM	0.0236 nM	0.456 nM	0.247 nM	0.147 nM	0.283 nM	0.479 nM	0.534 nM	0.579 nM	0.53 nM	no binding (tested: about 2e-8 M (log M -7.7))	no binding (tested: about 2e-7 M (log M -6.7))	10.6 nM
STIM003_289 (bispecific antibody, V domains shown, not shown: a dimerising Fc or GST) VH: EVQLVESGGGVVRPGGSLRLSCVASGVTFDDYGMSWVRQAPGKGLEWVSGINWNGGDTDYSDSVKGRFTISRDNAKNSLYLQMNSLRAEDTALYYCARDFYGSGSYYHVPFDYWGQGILVTVSS VL: EIVLTQSPGTLSLSPGERATLSCRASQSVSRSYLAWYQQKRGQAPRLLIYGASSRATGIPDRFSGDGSGTDFTLSISRLEPEDFAVYYCHQYDMSPFTFGPGTKVDIK	8.1 nM	~6 nM	~3.8 nM	10.2 nM	12.7 nM	0.0111 nM	0.0183 nM	0.0066 nM	0.012 nM	–	–	–	–	–	–	–	–	–	–	–
